Measurements reported in US20090054323A1 (published 2009).
Where no end group is shown, it is not given here.

B1: C17 (peptide)
peptide: QYGCDGFLYGCMIN
notes: Peptide from phage display selection on Ang-2
B2: TN8-8 (peptide)
peptide: KRPCEEMWGGCNYD
notes: as for B1
B3: TN8-Con1 (peptide)
peptide: KRPCEEIFGGCTYQ
B4: TN12-9 (peptide)
peptide: FDYCEGVEDPFTFGCDNH
notes: as for B1
B5: TN8-14 (peptide)
peptide: HQICKWDPWTCKHW
notes: as for B1
B6: L1 (peptide)
peptide: KFNPLDELEETLYEQFTFQQ
notes: as for B1
B7: TN8-Con4 (peptide)
peptide: QEECEWDPWTCEHM
B8: L1-7 Peptide (peptide)
peptide: CGGGGGAQTNFMPMDDLEQRLYEQFILQQGLE
notes: Synthetic peptide with N-terminal Cys and 5Gly linker; also called L1-7(unPEGylated Peptide); L1-7 free peptide
B9: PEO4(L1-7 Peptide)2 (peptide)
peptide: C(1,11‑bis‑maleimidotetraethyleneglycol)GGGGGAQTNFMPMDDLEQRLYEQFILQQGLE
modifications: also: two peptides joined through Cys1 by 1,11-bis-maleimidotetraethyleneglycol, one on each end
B10: PEG3.4K(L1-7 Peptide)2 (peptide)
peptide: C(poly(ethylene glycol)‑bis‑maleimide 3.4 kDa)GGGGGAQTNFMPMDDLEQRLYEQFILQQGLE
modifications: also: two peptides joined through Cys1 by PEG-bis-maleimide 3.4 kDa, one on each end
B11: mPEG5K-(L1-7 Peptide) (peptide)
peptide: C(methoxy‑poly(ethylene glycol)‑maleimide 5 kDa)GGGGGAQTNFMPMDDLEQRLYEQFILQQGLE

Biological target: T1, human Ang-2 (human, UniProt O15123 19-496, limits assumed)
T1 construct: Sources differ by assay: R&D Systems 623-AN (mixture of 2 truncated versions) for initial screening; also called hAng-2; huAng-2
T1 sequence (looked up): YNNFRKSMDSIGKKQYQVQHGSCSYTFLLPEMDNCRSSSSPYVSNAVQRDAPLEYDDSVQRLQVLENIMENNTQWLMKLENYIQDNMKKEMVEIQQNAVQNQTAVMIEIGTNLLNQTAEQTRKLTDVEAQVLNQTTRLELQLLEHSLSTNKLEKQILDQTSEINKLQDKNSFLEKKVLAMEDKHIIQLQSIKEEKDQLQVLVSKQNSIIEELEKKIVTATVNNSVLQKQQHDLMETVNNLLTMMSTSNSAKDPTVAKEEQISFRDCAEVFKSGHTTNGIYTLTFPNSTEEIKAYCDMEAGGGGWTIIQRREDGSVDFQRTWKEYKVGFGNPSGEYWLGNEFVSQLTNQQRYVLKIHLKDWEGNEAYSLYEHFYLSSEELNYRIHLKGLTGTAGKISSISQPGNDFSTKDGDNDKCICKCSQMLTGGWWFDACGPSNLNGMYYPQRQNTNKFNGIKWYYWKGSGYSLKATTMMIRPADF
Assay: phage display selection and phage ELISA on Ang-2
Experimental: Three filamentous phage libraries, designated as “TN8-IX” (5×10⁹ independent transformants), “TN12-I” (1.4×10⁹ independent transformants), and “Linear” (2.3×10⁹ independent transformants) (all from Dyax Corp.), were used to select for Ang-2 binding phage. […] For all three libraries, the phage from the first round of selection were eluted only in a non-specific manner for further rounds of selection.
An XL-1 Blue MRF′ culture was grown until OD₆₀₀ reached about 0.5. About thirty μl of this culture was aliquoted into each well of a 96-well microtiter plate. About 10 μl of eluted phage (section 4) was added to each well and allowed to infect bacteria for about 15 minutes at room temperature. About 100 μL of LB media containing approximately 12.5 μg/ml of tetracycline and approximately 50 μg/ml of ampicillin were added to each well. The microtiter plate was then incubated with shaking overnight at about 37° C. The recombinant Ang-2 protein (about 1 μg/ml in PBS) was allowed to bind to the 96 well Maxisorp plates (NUNC) overnight at about 4° C. As a control, the pure streptavidin was coated onto a separate Maxisorp plate at about 2 μg/ml in PBS.
On the following day, liquid in the protein coated Maxisorp plates was discarded, and each well was blocked with about 300 μl of 5% milk solution at about 4° C. overnight (alternatively, 1 hour at room temperature). The milk solution was then discarded, and the wells were washed three times with the PBST solution. After the last washing step, about 50 μl of PBST-4% milk was added to each well of the protein coated Maxisorp plates.

| Binder | binding result |
| --- | --- |
| B1 | binds |
| B2 | binds |
| B3 | binds |
| B4 | binds |
| B5 | binds |
| B6 | binds |
| B7 | binds |

Biological target: T1, human Ang-2
Assay: neutralization ELISA vs Tie-2-Fc

| Binder | IC50 [nM] |
| --- | --- |
| B8 | 0.49 |
| B9 | 0.064 |
| B10 | 0.058 |
| B11 | 11.7 |
